Reference: doi:10.1101/493668 (bioRxiv, 2019)
No end group written: not given here.

Key:
[1] = target: CsgA, major curlin subunit, recombinant with C-terminal His6-tag (Escherichia coli) (UniProt P28307); experiment: SEC-MALS
crystal structure = target: the molecule itself; experiment: crystal structure
[2] = target: the molecule itself; experiment: ThT fibrillation kinetics
[3] = target: the molecule itself; experiment: ThT fibrillation kinetics; remark: listed apart in the source

Chain of CsgA, major curlin subunit, recombinant with C-terminal His6-tag (P28307 21-151): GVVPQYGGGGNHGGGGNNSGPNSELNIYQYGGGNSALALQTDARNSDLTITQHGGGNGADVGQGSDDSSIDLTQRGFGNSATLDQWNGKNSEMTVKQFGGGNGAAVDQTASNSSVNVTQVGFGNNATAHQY

Row | Molecule | binding result (crystal structure) | binding result [2] | other results
1 | CsgA, major curlin subunit, recombinant with C-terminal His6-tag (from UniProt P28307 21-151) (natural protein) |  |  | stoichiometry N [1]: 6
2 | H-LNIYQY-OH [CsgA segment 45LNIYQY50 (R1 repeat), unmodified termini] | binds |  | 
3 | Ac-IYQYGG-NH2 [CsgA segment 47IYQYGG52 (R1 repeat), capped termini] |  | binds | 
4 | H-TASNSS-OH [CsgA segment 129TASNSS134 (R4-R5 loop), unmodified termini] | binds |  | 
5 | LNIYQY-NH2 [CsgA segment 45LNIYQY50 (R1 repeat), capped at the C-terminus] |  |  | binding result [3]: binds
6 | Ac-LNIYQY-NH2 [CsgA segment 45LNIYQY50 (R1 repeat), capped termini] |  | binds | 
7 | H-IYQYGG-OH [CsgA segment 47IYQYGG52 (R1 repeat), unmodified termini] | binds |  | 
8 | VTQVGF-NH2 [CsgA segment 137VTQVGF142 (R5 repeat), capped at the C-terminus] |  |  | binding result [3]: binds
9 | Ac-VTQVGF-NH2 [CsgA segment 137VTQVGF142 (R5 repeat), capped termini] |  | binds | 
10 | H-VTQVGF-OH [CsgA segment 137VTQVGF142 (R5 repeat), unmodified termini] | binds |  | 
